For the series the following is noted: Sus scrofa, pH 7, Thermal, Hepes 20 mM, reversible: No, whole UniProt chain shown.

Where “and” joins values, the source holds several entries; their conditions need not be identical. Equal values may be shown once.

B1: Major seminal plasma glycoprotein PSP-I wild type, P35495 (protein)
chain: MKLGSAIPWALLFSTATLISTGWGLDYHACGGRLTDDYGTIFTYKGPKTECVWTLQVDPKYKLLVSIPTLNLTCGKEYVEILEGAPGSKSLGKFCEGLSILNRGSSGMTVKYKRDSGHPASPYEIIFLRDSQG
In general, Tm refers to the temperature at which the thermal transition is half complete. With B1, under “DSC, ZnCl2 5 mM”, the Tm came to 51.1 °C and the “unfolding enthalpy (calorimetric)” value came out at 73 kJ/mol. In addition, the “unfolding enthalpy (calorimetric)” value (DSC) was 77 kJ/mol and 87 kJ/mol.

B2: Major seminal plasma glycoprotein PSP-II wild type, P35496 (protein)
chain: MKLGTAIPWALLLSTATLVSTARINGPDECGRVIKDTSGSISNTDRQKNLCTWTILMKPDQKVRMAIPYLNLACGKEYVEVFDGLLSGPSYGKLCAGAAIVFLSTANTMTIKYNRISGNSSSPFLIYFYGSSPGSEY
Turning to B2, the Tm (CD) stood at 52.6 °C.

The values are drawn from FireProtDB (doi:10.1021/bi052621g).
